Test results: patent publication US7687457B2, “Cyclic molecular framework and derivatives thereof” (The University of Queensland, priority 1999, dated 2010)

Molecular target: N-type voltage-sensitive calcium channels (receptors in rat brain membrane) (rat) (UniProt Q02294)
UniProt Q02294, sequence (Q02294 whole entry): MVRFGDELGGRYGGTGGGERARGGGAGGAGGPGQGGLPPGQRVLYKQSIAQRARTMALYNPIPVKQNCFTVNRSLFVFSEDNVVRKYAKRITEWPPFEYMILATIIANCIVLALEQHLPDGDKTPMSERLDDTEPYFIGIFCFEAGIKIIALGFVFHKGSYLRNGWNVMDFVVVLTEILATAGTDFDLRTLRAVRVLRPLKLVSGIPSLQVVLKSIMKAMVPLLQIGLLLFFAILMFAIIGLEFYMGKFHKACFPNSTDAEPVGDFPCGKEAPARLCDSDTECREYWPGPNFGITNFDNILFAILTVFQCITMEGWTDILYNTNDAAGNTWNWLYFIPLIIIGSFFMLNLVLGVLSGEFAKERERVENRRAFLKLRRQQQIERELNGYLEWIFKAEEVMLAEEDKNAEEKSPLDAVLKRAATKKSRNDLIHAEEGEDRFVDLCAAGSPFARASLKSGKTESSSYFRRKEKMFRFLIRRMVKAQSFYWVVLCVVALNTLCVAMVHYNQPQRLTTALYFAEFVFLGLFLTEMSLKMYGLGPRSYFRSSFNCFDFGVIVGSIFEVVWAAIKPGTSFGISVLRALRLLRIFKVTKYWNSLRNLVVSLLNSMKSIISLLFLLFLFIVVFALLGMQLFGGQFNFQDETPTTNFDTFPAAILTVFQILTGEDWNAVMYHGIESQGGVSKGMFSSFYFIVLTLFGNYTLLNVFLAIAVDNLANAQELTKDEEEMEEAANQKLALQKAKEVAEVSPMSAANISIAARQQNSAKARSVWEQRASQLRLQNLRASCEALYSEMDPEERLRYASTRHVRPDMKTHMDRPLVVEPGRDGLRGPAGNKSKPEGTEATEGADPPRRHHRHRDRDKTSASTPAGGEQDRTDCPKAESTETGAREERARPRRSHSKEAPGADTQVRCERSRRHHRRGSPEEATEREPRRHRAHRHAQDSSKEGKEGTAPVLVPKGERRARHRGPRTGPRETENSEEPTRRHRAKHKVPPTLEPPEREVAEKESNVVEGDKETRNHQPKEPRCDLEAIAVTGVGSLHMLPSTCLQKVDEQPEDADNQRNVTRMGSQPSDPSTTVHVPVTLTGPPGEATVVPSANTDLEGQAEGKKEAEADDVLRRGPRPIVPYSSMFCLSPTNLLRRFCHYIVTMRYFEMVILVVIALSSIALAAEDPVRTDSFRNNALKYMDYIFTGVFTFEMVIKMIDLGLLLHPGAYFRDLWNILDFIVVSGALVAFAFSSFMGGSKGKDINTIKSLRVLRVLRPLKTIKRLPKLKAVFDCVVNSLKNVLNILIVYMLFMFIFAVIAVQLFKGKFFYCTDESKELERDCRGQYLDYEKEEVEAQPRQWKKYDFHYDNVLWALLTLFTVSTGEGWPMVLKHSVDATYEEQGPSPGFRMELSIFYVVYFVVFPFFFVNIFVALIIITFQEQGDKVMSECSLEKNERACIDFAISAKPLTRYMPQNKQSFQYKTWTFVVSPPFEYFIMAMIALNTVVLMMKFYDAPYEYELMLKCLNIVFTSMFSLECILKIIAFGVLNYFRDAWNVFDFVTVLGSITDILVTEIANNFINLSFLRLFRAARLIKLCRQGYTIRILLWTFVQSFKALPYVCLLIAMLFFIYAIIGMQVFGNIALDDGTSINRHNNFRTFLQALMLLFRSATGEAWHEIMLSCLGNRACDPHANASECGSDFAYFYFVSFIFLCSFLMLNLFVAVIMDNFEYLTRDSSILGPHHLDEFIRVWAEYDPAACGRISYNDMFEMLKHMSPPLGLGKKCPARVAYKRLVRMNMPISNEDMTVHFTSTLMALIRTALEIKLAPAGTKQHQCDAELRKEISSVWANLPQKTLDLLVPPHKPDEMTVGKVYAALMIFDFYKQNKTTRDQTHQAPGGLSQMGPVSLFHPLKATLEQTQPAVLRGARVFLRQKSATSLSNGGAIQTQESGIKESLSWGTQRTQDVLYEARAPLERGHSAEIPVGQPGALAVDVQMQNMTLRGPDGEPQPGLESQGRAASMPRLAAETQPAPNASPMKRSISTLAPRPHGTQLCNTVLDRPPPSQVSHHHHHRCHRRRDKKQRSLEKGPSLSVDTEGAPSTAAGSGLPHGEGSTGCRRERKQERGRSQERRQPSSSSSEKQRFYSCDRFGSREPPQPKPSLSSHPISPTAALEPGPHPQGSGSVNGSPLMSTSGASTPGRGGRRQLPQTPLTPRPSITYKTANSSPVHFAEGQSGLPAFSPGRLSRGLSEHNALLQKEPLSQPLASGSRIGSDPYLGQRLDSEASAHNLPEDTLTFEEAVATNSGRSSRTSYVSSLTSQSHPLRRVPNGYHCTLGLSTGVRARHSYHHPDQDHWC

“ω-conotoxin MVIIA (from UniProt P05484 46-70) (peptide)” gave an EC50 of 0.044 nM.
